Assay results published in paper PMC11148069 (2024).

Legend:
[1] = biological target: xNup93-Nb1t; test: BLI
[2] = biological target: xhNup93-Nb3t; test: BLI

B1: recombinant Xenopus Nup93 target (BLI) (natural protein)
chain: MDGEGFGELLQQAEQLAAETEGVTELPHVERNLQEIQQAGERLRSKTMTRTSQESANVKASVLLGSRGLDISHISQRLESLSAATTFEPLEPVKDTDIQGFLKNEKDNALLSAIEESRKRTFVMAEEYHRESMLVEWEQVKQRVLHTLLASGEDALDFTQESETSYISESGAPGRSSLDNVEMAYARQMYMYNEKVVSGHLQPSLVDLCTEAAERLDDKNVSDLWVMVKQMTDVPLIPASDTLKSRCSGQMQMAFVRQALNYLEQSYKNYTLISVFANLQQAQLGGVPGTYNLVRSFLNIRLPTPIPGLQDGEIEGYPVWALIYYCMRCGDLMAAQQVVNRAQHQLGDFKNCFQEYIHNKDRRLSPTTENKLRLHYRRAVRASTDPYKRAVYCIIGRCDVSDNHSEVADKTEDYLWLKLSQVCFEDEANSSPQDRLTLPQFQKQLFEDYGESHFAVNQQPYLYFQVLFLTAQFEAAIAFLFRLERTRCHAVHVALALFELKLLLKSTGQSAQLLSQEPGEPQGVRRLNFIRLLMLYTRKFEPTDPREALQYFYFLRNEKDNQGESMFLRCVSELVIESREFDMLLGKLEKDGSRKPGAIDKFTRDTKTIINKVASVAENKGLFEEAAKLYDLAKNPDKVLELTNKLLSPVVSQISAPQSNRERLKNMALAIAERYKSQGVSAEKSINSTFYLLLDLITFFDEYHAGHIDLSFDVIERLKLVPLSQDSVEERVAAFRNFSDEIRHNLSEILLATMNILFTQYKRLKGSGPTTLGRPQRVQEDKDSVLRSQARALITFAGMIPYRMSGDTNARLVQMEVLMN
- Kd [1]: 0.1 nM
- Kd [2]: < 0.01 nM
